{"source": "paper PMC5059666", "about": "(2016)", "key": {"[1]": {"target": "feline IgM-Fc pentamer (FLAG-tagged feline IgM-Fc with Myc-tagged feline IgJ)", "assay": "immunoblotting (non-reducing conditions) of IgM-Fc bound AIM, quantified using NIH ImageJ", "settings": "supernatant after a co-culture of feline Fc-expressing HEK293T cells and cells expressing wild-type, chimeric, or mutant feline AIM; parent: est. 1; read off a plot"}, "[2]": {"target": "feline IgM-Fc pentamer (FLAG-tagged feline IgM-Fc with Myc-tagged feline IgJ) (cat)", "assay": "SPR; Biacore T100, 25 °C; IgM-Fc pentamers amine-coupled on a CM5 chip (1000 RU), BSA reference cell; AIM as analyte 50 nM to 5 μM in D-PBS(-) pH 7.4, single-cycle kinetics, heterogeneous ligand model"}, "[3]": {"target": "T1, mouse IgM-Fc pentamer (FLAG-IgM-Fc with IgJ-Myc) (mouse, UniProt P01872 1-454; P01592 22-159)", "T1 chain 1": "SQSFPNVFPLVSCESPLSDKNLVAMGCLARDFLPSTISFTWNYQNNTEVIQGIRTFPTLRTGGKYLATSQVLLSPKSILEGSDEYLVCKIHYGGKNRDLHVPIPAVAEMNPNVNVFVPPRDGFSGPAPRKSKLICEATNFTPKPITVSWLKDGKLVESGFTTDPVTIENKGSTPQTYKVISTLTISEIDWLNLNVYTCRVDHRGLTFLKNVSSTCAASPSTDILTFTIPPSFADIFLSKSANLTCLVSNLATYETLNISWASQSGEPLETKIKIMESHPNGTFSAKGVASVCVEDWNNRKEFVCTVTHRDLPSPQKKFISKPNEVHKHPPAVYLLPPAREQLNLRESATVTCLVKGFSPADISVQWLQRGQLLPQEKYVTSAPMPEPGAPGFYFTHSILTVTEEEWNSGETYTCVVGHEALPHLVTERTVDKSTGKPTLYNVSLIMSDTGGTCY", "T1 chain 2": "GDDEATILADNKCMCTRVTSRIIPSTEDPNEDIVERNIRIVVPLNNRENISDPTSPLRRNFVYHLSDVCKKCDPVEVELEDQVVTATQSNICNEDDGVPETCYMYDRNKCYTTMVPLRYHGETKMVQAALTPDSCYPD", "assay": "SPR"}, "[4]": {"target": "T1, mouse IgM-Fc pentamer (FLAG-IgM-Fc with …)", "assay": "SPR"}, "[5]": {"target": "mouse IgM-Fc pentamer (FLAG-IgM-Fc with IgJ-Myc) (mouse) (UniProt P01872)", "assay": "SPR; Biacore T100, 25 °C; IgM-Fc pentamers amine-coupled on a CM5 chip (1000 RU), BSA reference cell; AIM as analyte 50 nM to 5 μM in D-PBS(-) pH 7.4, single-cycle kinetics, heterogeneous ligand model"}}}
{"molecule": "recombinant feline AIM (3-SRCR) (from UniProt A0A1E1GEY0) R299K; R300I; R338K", "values": [{"measurement": "ratio to parent", "setting": "[1]", "result": 0.58}]}
{"molecule": "recombinant feline AIM (4-SRCR) (from UniProt A0A1E1GEY0 20-355) (natural protein)", "values": [{"measurement": "koff", "setting": "[2]", "result": "4.38e-05", "unit": "s⁻¹"}, {"measurement": "kon", "setting": "[2]", "result": 9.52, "unit": "M⁻¹ s⁻¹"}]}
{"molecule": "recombinant feline AIM (3-SRCR) (natural protein) SFSRVRLVGGDHRCEGRVELQQDDEWVTVCDDYWNMDSVAVLCRELGCGAARKTMSGTVYGPVTPKDQKVFIHLFRCNGIEESLSQCEREDAIGCSHVEDAGAVCEPIYTGPGILGPESVRLADGPGRCQGRVEVKFRGEWSSVCQAGWSFAAAKVVCRQLGCGRATLTRRGCNKATQGQGAIWQRKASCSGQEVSLQDCLSEVWEHNCTHNEDVWVECEDPFALKLVGGRSHCEGRLEVLHKGEWGSVCDDGWGQDADRVVCRQLGCGQPLSPPVKVRRRFGPGVGRIWLDDVKCSGKEPSLEQCLHRSWGYHNCNHREDVAVVCEEQQSGLPDA", "values": [{"measurement": "Kd", "setting": "[2]", "result": 5.97, "unit": "nM"}, {"measurement": "koff", "setting": "[2]", "result": "5.65e-05", "unit": "s⁻¹"}, {"measurement": "kon", "setting": "[2]", "result": 9460, "unit": "M⁻¹ s⁻¹"}, {"measurement": "Kd", "setting": "[3]", "result": 14.6, "unit": "nM"}, {"measurement": "koff", "setting": "[4]", "result": 0.000106, "unit": "s⁻¹"}]}
{"molecule": "recombinant mouse AIM (natural protein) ESPTKVQLVGGAHRCEGRVEVEHNGQWGTVCDDGWDRRDVAVVCRELNCGAVIQTPRGASYQPPASEQRVLIQGVDCNGTEDTLAQCELNYDVFDCSHEEDAGAQCENPDSDLLFIPEDVRLVDGPGHCQGRVEVLHQSQWSTVCKAGWNLQVSKVVCRQLGCGRALLTYGSCNKNTQGKGPIWMGKMSCSGQEANLRSCLLSRLENNCTHGEDTWMECEDPFELKLVGGDTPCSGRLEVLHKGSWGSVCDDNWGEKEDQVVCKQLGCGKSLHPSPKTRKIYGPGAGRIWLDDVNCSGKEQSLEFCRHRLWGYHDCTHKEDVEVICTDFDV", "values": [{"measurement": "Kd", "setting": "[5]", "result": 5.82, "unit": "µM"}, {"measurement": "koff", "setting": "[5]", "result": 0.0223, "unit": "s⁻¹"}, {"measurement": "kon", "setting": "[5]", "result": 3830, "unit": "M⁻¹ s⁻¹"}]}
